Experimental data published in article PMC7478360.

Assays:
[1] = target: T1, thrombin (human (plasma), UniProt P00734;P00734 328-363;364-622); assay: graphene FET, Dirac voltage shift
[2] = target: T1, thrombin; assay: graphene FET, real-time drain current
[3] = target: T1, thrombin; assay: graphene FET, Dirac voltage shift; remark: listed apart in the source

Binder	Kd [1]	Kd [2]	binding result [3]
CCATCTCCACTTGGTTGGTGTGGTTGG (structured_DNA, 5' NH2-(CH2)6, amide-coupled to PBASE on graphene) [anti-thrombin DNA aptamer]	376 pM	732 pM	
ATCAGGGCTAAAGAGTGCAGAGTTACTTAG (ssDNA, 5' NH2-(CH2)6, amide-coupled to PBASE on graphene) [anti-lysozyme DNA aptamer]			no binding
